Experimental data from patent US20130136748A1 (Ablynx, published 2013).

T1: cHER3ECD (Maccaca fascicularis HER3 extracellular domain) (Macaca fascicularis, UniProt P21860 20-643 (human entry))
T1 construct: also called cyno HER3ECD; cyno HER3-ECD
T1 chain: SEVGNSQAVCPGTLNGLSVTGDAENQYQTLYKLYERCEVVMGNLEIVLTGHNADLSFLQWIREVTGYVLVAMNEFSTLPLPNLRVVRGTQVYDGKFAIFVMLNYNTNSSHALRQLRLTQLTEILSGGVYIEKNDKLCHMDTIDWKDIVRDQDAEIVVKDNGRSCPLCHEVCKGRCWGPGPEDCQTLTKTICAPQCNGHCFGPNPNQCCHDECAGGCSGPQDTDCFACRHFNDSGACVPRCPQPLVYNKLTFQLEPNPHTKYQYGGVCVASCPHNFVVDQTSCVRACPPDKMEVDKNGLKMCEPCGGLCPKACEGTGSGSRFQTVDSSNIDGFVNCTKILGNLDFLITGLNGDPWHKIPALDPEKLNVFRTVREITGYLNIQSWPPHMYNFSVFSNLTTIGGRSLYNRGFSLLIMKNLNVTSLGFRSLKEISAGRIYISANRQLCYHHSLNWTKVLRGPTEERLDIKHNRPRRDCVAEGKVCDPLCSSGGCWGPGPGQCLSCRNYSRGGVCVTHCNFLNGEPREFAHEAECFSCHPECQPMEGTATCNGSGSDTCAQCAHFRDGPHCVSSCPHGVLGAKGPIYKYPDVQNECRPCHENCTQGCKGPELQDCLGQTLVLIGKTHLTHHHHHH

T2: Chicken Her3 (AA1-25 human, AA26-642 chicken) (chicken (human signal sequence))
T2 construct: Transmembrane and extracellular regions only, on transiently transfected HEK293 cells; also called full length extracellular chicken HER3
T2 chain: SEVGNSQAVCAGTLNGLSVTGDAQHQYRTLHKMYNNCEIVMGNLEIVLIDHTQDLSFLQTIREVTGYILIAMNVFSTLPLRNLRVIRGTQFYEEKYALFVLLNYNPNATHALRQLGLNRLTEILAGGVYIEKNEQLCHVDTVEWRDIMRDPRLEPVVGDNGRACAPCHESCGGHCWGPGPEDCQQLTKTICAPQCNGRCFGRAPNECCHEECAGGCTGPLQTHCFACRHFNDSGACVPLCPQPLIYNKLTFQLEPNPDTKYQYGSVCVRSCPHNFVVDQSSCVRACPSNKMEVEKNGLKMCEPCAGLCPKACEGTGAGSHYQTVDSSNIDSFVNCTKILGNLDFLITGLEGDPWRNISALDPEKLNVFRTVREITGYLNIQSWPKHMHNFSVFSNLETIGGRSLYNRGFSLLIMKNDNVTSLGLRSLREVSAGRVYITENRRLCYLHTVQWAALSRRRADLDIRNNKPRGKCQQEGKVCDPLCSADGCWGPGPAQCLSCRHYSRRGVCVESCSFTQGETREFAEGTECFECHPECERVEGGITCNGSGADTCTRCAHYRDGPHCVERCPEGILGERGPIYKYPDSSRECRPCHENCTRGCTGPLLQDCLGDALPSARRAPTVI

T3: Chimeric chicken Her3-human domain 2 (AA207-328 human) (chicken/human chimera)
T3 construct: Transmembrane and extracellular regions, on HEK293 cells
T3 chain: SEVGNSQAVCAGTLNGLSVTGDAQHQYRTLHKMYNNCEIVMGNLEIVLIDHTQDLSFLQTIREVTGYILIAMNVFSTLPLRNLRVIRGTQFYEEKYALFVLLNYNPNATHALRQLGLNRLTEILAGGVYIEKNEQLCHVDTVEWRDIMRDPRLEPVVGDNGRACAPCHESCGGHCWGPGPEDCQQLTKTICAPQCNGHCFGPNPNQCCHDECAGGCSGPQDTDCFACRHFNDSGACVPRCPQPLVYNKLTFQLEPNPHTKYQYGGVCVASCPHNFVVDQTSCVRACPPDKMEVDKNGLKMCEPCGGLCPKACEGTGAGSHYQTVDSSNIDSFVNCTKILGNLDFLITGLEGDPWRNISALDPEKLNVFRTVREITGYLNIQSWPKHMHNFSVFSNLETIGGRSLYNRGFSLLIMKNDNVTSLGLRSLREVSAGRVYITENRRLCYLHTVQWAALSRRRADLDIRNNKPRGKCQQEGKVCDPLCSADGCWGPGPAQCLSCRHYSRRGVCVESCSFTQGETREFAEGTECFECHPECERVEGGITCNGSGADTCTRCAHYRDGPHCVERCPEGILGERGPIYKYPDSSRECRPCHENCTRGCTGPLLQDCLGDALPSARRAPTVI

B1: 21B02 (VHH)
VHH: EVQLVESGGGLVQPGGSLRLSCAASGFTFDYYTIGWFRQAPGKEREGVSCISSRDGDSYYADSVKGRFTISRDNAKNTAYLQMNSLKPEDTAVYYCAASASDYGLGLELFHDEYNYWGQGTQVTVSS
B2: 18E08 (VHH)
VHH: EVQLVESGGGLVQPGGSLRLSCAASGTLFKINAMGWYRQAPGKQRELVALITSSDTTDYAESVEGRFTISRDNTWNAVYLQMNSLKPEDTAVYYCHSDHYSMGVPEKRVIMYGQGTQVTVSS

Key:
human HER1 [1] = molecular target: T4, human HER1 (human, UniProt P00533 25-1210); assay: FACS, CHO-HER1
T4 construct: also called EGFR; ErbB1

human HER4 [2] = molecular target: T5, human HER4 (human, UniProt Q15303 26-1308); assay: FACS, CHO-HER4
human HER1 [3] = molecular target: T4, human HER1; assay: FACS CHO-HER1, 222 nM
human HER1 [4] = molecular target: T4, human HER1; assay: FACS CHO-HER1, 667 nM
human HER2 [5] = molecular target: T6, human HER2 (human, UniProt P04626 23-1255); assay: FACS CHO-HER2, 222 nM
T6 construct: also called hHER2

human HER2 [6] = molecular target: T6, human HER2; assay: FACS CHO-HER2, 667 nM
human HER4 [7] = molecular target: T5, human HER4; assay: FACS CHO-HER4, 222 nM
human HER4 [8] = molecular target: T5, human HER4; assay: FACS CHO-HER4, 667 nM
human HER1 [9] = molecular target: T4, human HER1; assay: FACS CHO-HER1, 2000 nM
human HER2 [10] = molecular target: T6, human HER2; assay: FACS CHO-HER2, 2000 nM
human HER4 [11] = molecular target: T5, human HER4; assay: FACS CHO-HER4, 2000 nM
hHER3 full length [12] = molecular target: T7, hHER3 full length (human, UniProt P21860 20-1342); assay: cell-based or functional assay
hHER3 full length [13] = molecular target: T7, hHER3 full length; assay: cell-based or functional assay; remark: listed apart in the source
[14] = molecular target: T8, hHER3 ECD (human HER3 extracellular domain) (human, UniProt P21860 20-643); assay: ELISA, coated hHER3-ECD
T8 construct: also called recombinant HER3-ECD

[15] = molecular target: T1, cHER3ECD (Maccaca fascicularis HER3 …); assay: ELISA, coated cHER3-ECD
[16] = molecular target: T2, Chicken Her3 (AA1-25 human, AA26-642 …); assay: FACS, HEK293 with chicken HER3
[17] = molecular target: T9, human HER3-Fc (R&D Systems, 348-RB) (human, UniProt P21860 20-643); assay: SPR, HER3-Fc captured by anti-Fc
T9 construct: Bought; also called hHER3-Fc; Fc-HER3; Fc part of the bought chimera not given, not described

hHER3 full length [18] = molecular target: T7, hHER3 full length; assay: FACS, 400 nM, competitor 04C07-biotin
hHER3 full length [19] = molecular target: T7, hHER3 full length; assay: FACS, 400 nM, competitor 04F10-biotin
hHER3 full length [20] = molecular target: T7, hHER3 full length; assay: FACS, 400 nM, competitor 17C08-biotin
hHER3 full length [21] = molecular target: T7, hHER3 full length; assay: FACS, 400 nM, competitor 18E08-biotin
hHER3 full length [22] = molecular target: T7, hHER3 full length; assay: FACS, 400 nM, competitor 21B02-biotin
hHER3 full length [23] = molecular target: T7, hHER3 full length; assay: FACS, 400 nM, competitor 23F05-biotin
hHER3 full length [24] = molecular target: T7, hHER3 full length; assay: FACS competition with HRG1-β1-EGF, CHO-HER3
human HER2 [25] = molecular target: T6, human HER2; assay: FACS, CHO-HER2
[26] = molecular target: T3, Chimeric chicken Her3-human domain 2 …; assay: FACS, HEK293 with chimeric HER3

T5 sequence (Q15303 26-1308 limits assumed): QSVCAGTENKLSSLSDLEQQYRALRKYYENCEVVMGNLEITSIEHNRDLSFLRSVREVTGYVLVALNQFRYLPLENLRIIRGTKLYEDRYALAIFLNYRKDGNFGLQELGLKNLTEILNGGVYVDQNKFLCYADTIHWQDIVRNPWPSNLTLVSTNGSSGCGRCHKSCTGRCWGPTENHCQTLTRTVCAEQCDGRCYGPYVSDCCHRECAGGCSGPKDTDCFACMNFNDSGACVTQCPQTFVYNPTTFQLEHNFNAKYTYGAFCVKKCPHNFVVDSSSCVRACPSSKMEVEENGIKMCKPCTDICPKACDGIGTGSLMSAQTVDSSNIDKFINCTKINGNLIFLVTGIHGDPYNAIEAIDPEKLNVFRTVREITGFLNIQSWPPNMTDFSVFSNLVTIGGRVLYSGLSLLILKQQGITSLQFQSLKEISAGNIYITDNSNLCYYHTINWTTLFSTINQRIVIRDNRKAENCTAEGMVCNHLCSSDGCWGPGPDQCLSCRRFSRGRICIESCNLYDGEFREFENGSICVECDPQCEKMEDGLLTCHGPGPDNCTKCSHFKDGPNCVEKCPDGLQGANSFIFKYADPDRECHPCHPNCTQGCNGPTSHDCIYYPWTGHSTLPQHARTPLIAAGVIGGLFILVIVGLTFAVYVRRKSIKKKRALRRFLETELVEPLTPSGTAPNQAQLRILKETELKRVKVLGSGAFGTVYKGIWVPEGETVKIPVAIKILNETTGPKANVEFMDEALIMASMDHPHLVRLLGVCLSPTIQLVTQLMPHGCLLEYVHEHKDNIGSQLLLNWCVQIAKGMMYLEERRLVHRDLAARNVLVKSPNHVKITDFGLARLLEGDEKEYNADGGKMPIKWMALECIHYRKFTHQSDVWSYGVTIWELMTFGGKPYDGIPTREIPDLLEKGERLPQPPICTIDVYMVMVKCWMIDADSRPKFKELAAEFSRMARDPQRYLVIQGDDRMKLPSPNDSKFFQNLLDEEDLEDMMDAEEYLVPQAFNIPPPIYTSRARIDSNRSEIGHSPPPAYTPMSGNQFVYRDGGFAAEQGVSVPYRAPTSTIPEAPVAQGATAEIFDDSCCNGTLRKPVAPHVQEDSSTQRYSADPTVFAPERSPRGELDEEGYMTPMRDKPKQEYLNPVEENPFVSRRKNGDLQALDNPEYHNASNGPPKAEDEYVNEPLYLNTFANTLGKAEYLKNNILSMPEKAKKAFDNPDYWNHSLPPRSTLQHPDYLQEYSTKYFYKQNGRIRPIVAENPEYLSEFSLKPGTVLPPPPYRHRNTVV

Binder	binding result (human HER1 [1])	binding result (human HER4 [2])	MCF (human HER1 [3])	MCF (human HER1 [4])	MCF (human HER2 [5])	MCF (human HER2 [6])	MCF (human HER4 [7])	MCF (human HER4 [8])	MCF (human HER1 [9])	MCF (human HER2 [10])	MCF (human HER4 [11])	IC50, HRG1-β1 induced pHER3, MCF-7 (hHER3 full length [12]) [M]	IC50, HRG1-β1 induced pHER3, MDA-MB468 (hHER3 full length [12]) [M]	IC50, HRG1-β1 induced pAkt, MCF-7 (hHER3 full length [13]) [M]	inhibition of HRG1-β1 induced pERK1/2, MCF-7 (hHER3 full length [13]) [% inhibition]	EC50 [14] [nM]	EC50 [15] [nM]	Kd [17] [nM]	kon [17] [M⁻¹ s⁻¹]	% competition (hHER3 full length [18]) [%]	also measured
B1	no binding (tested: 2000 nM)	no binding (tested: 2000 nM)	64	64	1340	3610	91	119	53	8570	273	4.88e-08	9.99e-08	6.9e-08	< 50	1.1	0.9	1.22	2.2e+06	10	binding result [16]: binds; % competition (hHER3 full length [19]): 15%; % competition (hHER3 full length [20]): 17%; % competition (hHER3 full length [21]): 20%; % competition (hHER3 full length [22]): 100%; % competition (hHER3 full length [23]): 98%; IC50 (hHER3 full length [24]): 13.3 nM
B2	no binding (tested: 2000 nM)	no binding (tested: 2000 nM)	61	62	53	52	91	80	64	78	115	6.39e-08	1.01e-07	5.69e-08	< 50	4.7	4.4	53.8	10400	0	binding result (human HER2 [25]): no binding (tested: 2000 nM); binding result [26]: binds; % competition (hHER3 full length [19]): 0%; % competition (hHER3 full length [20]): 63%; % competition (hHER3 full length [21]): 86%; % competition (hHER3 full length [22]): 4%; % competition (hHER3 full length [23]): 0%
